Assays:
[1] = confocal colocalisation with LAMP-1/CD63 (Pearson), cell lines; conditions: control: untreated cells
[2] = western blot of cell media; conditions: glycan lost; control: untreated cells
[3] = confocal colocalisation (Pearson), primary and super-charged NK cells; conditions: glycan changed form; control: untreated cells

B1: cystatin F: kifunensine (10 µM, 6 h); U-937, TALL-104, NK-92 (protein)
parent chain: MRAAGTLLAFCCLVLSTTGGPSPDTCSQDLNSRVKPGFPKTIKTNDPGVLQAARYSVEKFNNCTNDMFLFKESRITRALVQIVKGLKYMLEVEIGRTTCKKNQHLRLDDCDFQTNHTLKQTLSCYSEVWVVPWLQHFEVPVLRCH
localisation_or_trafficking ([1]; glycan changed form): increases

B2: cystatin F: tunicamycin (1 µg/mL); U-937, NK-92 (protein)
parent chain: MRAAGTLLAFCCLVLSTTGGPSPDTCSQDLNSRVKPGFPKTIKTNDPGVLQAARYSVEKFNNCTNDMFLFKESRITRALVQIVKGLKYMLEVEIGRTTCKKNQHLRLDDCDFQTNHTLKQTLSCYSEVWVVPWLQHFEVPVLRCH
localisation_or_trafficking ([1]; glycan lost): decreases

B3: cystatin F: tunicamycin (protein)
parent chain: MRAAGTLLAFCCLVLSTTGGPSPDTCSQDLNSRVKPGFPKTIKTNDPGVLQAARYSVEKFNNCTNDMFLFKESRITRALVQIVKGLKYMLEVEIGRTTCKKNQHLRLDDCDFQTNHTLKQTLSCYSEVWVVPWLQHFEVPVLRCH
expression_or_secretion [2]: changes

B4: cystatin F: kifunensine (10 µM, 6 h); pNK, sNK (protein)
parent chain: MRAAGTLLAFCCLVLSTTGGPSPDTCSQDLNSRVKPGFPKTIKTNDPGVLQAARYSVEKFNNCTNDMFLFKESRITRALVQIVKGLKYMLEVEIGRTTCKKNQHLRLDDCDFQTNHTLKQTLSCYSEVWVVPWLQHFEVPVLRCH
localisation_or_trafficking [3]: increases
